{"source": "patent US20240191187A1", "about": "“MEDIA AND METHODS FOR GROWING MAMMARY ORGANOIDS” (STEMCELL TECHNOLOGIES CANADA INC., priority 2021, published 2024)", "molecules": {"B1": {"name": "amphiregulin (protein, UniProt P15514 101-187, looked up)", "Amphiregulin": "SVRVEQVVKPPQNKTESENTSDKPKRKKKGGKNGKNRRNRKKKNPCNAEFQNFCIHGECKYIEHLEAVTCKCQQEYFGERCGEKSMK", "notes": "ligand of ERBB1"}, "B2": {"name": "RSPO-1: WNT signaling agonist, an R-spondin (protein, UniProt Q2MKA7 21-263, looked up)", "R-spondin-1": "SRGIKGKRQRRISAEGSQACAKGCELCSEVNGCLKCSPKLFILLERNDIRQVGVCLPSCPPGYFDARNPDMNKCIKCKIEHCEACFSHNFCTKCKEGLYLHKGRCYPACPEGSSAANGTMECSSPAQCEMSEWSPWGPCSKKQQLCGFRRGSEERTRRVLHAPVGDHAACSDTKETRRCTVRRVPCPEGQKRRKGGQGRRENANRNLARKESKEAGAGSRRRKGQQQQQQQGTVGPLTSAGPA"}, "B3": {"name": "BMP4: BMP signaling activator (protein, UniProt P12644 293-408, looked up)", "Bone morphogenetic protein 4": "SPKHHSQRARKKNKNCRRHSLYVDFSDVGWNDWIVAPPGYQAFYCHGDCPFPLADHLNSTNHAIVQTLVNSVNSSIPKACCVPTELSAISMLYLDEYDKVVLKNYQEMVVEGCGCR"}, "B4": {"name": "TGFβ3: ligand of a TGFβ receptor (protein, UniProt P10600 301-412, looked up)", "Transforming growth factor …": "ALDTNYCFRNLEENCCVRPLYIDFRQDLGWKWVHEPKGYYANFCSGPCPYLRSADTTHSTVLGLYNTLNPEASASPCCVPQDLEPLTILYYVGRTPKVEQLSNMVVKSCKCS"}, "B5": {"name": "NOGGIN: protein inhibitor of BMP signaling (protein, UniProt Q13253 28-232, looked up)", "Noggin": "QHYLHIRPAPSDNLPLVDLIEHPDPIFDPKEKDLNETLLRSLLGGHYDPGFMATSPPEDRPGGGGGAAGGAEDLAELDQLLRQRPSGAMPSEIKGLEFSEGLAQGKKQRLSKKLRRKLQMWLWSQTFCPVLYAWNDLGSRFWPRYVKVGSCFSKRSCSVPEGMVCKPSKSVHLTVLRWRCQRRGGQRCGWIPIQYPIISECKCSC"}, "B6": {"name": "RSPO-3: WNT agonist, an R-spondin (protein, UniProt Q9BXY4 22-272, looked up)", "R-spondin-3": "QNASRGRRQRRMHPNVSQGCQGGCATCSDYNGCLSCKPRLFFALERIGMKQIGVCLSSCPSGYYGTRYPDINKCTKCKADCDTCFNKNFCTKCKSGFYLHLGKCLDNCPEGLEANNHTMECVSIVHCEVSEWNPWSPCTKKGKTCGFKRGTETRVREIIQHPSAKGNLCPPTNETRKCTVQRKKCQKGERGKKGRERKRKKPNKGESKEAIPDSKSLESSKEIPEQRENKQQQKKRKVQDKQKSVSVSTVH"}}, "key": {"[1]": {"tested_on": "human mammary epithelial cells", "assay": "Total cell count among formed human mammary organoids", "format": "cell-based", "quoted_text": "Cryopreserved pellet A and pellet B were dissociated into a single cell suspension by treatment with 0.25% Trypsin-EDTA for 5 minutes at 37° C. (with intermittent trituration) and then centrifuged at (300 g for 5 minutes). The supernatant was discarded and the pellet was resuspended in a 100 μg/ml DNase solution for 1 minute at room temperature. The resulting cells were passed through a 37 μm strainer to obtain the single cell suspension.\nEach well received between 0.5-1 mL of any one of the various culture media described herein. […]\nThe effects of modulating signaling through BMP were analyzed across multiple experiments in terms of total cell count among formed organoids (FIG. 9A) and the lineage balance of the cells among formed organoids (FIG. 9B).\nThe effects of modulating signaling through an ERBB receptor family member were analyzed across multiple experiments in terms of total cell count among formed organoids (FIG. 13A) and the lineage balance of the cells among formed organoids (FIG. 13B)."}, "[2]": {"tested_on": "human mammary epithelial cells", "assay": "Human mammary organoid cell lineage balance by flow cytometry", "conditions": "for cell lineage balance, BMP signaling modulators: ~50 ng/mL BMP2 or BMP4, ~25-200 ng/mL NOGGIN or ~10-100 nM LDN193189"}, "[3]": {"tested_on": "mouse mammary epithelial cells", "assay": "Mouse mammary organoid formation, organoid organization by brightfield/confocal imaging", "format": "cell-based", "conditions": "for type of organoids formed from bulk (non-sorted) mammary epithelial cells: RSPO comprising media vs media free of RSPO (luminal-biased/cystic)", "protocol": "(§1) A single cell suspension of mouse mammary epithelial cells was isolated from mammary glands, as follows. A resected mammary gland was minced and placed in a tube containing standard culture medium, including 50 μg/ml gentamycin, collagenase, and hyaluronidase. The mammary gland was incubated for 2 hours at 37° C. in the tissue incubator. Following the incubation, the cell dissociation mixture was washed in advanced DMEM and centrifuged at 300 g for 5 minutes. Depending on the appearance of the pellet, in some cases it is desirable to resuspend the pellet in ammonium chloride to lyse contaminating red blood cells. Following, the pellet is resuspended in 0.25% Trypsin-EDTA, as above, for 5 minutes at 37° C. and then centrifuged at (300 g for 5 minutes). The supernatant was discarded and the pellet was resuspended in a 100 μg/ml DNase solution for 1 minute at room temperature. The resulting cells were passed through a 37 μm strainer to obtain the single cell suspension.\nEach well received between 0.5-1 mL of any one of the various culture media described herein.\nThe plated single cell suspension of mammary epithelial cells formed into organoids that were passaged approximately every 7-days, with 2-3 full medium changes during such 7-day period. To passage the organoids, the Matrigel domes were broken apart by pipetting in pre-warmed 0.25% Trypsin-EDTA, incubating at 37° C. for ˜ 5-15 minutes and pipetting again. The trypsinization reaction was inactivated by washing in an equal volume of Hanks Balanced Salt Solution supplemented with 2% FBS. Depending on the density and size of organoids a 1:2-1:5 split was performed, with the cells seeded as domes, as described above. Alternatively, cells would be strained through a 37 μm strainer to obtain the single cell suspension and seeded in Matrigel domes as described above.\nSingle cell suspensions of mouse mammary epithelial cells were obtained in accordance with Example 1. The single cell suspension was sorted using a BD FACSAria™ Fusion flow cytometer into three populations of cells corresponding to the ER^+, milk, and basal cell lineages, based on the differential expression of EpCAM, CD49f, and CD49b. Non-epithelial cells were further eliminated during the sorting strategy based on the expression of CD45, Ter119 and CD31. The sorted cells were seeded and cultured essentially as described in Example 2 in an organoid medium free of an exogenously-added inhibitor of BMP signaling and either comprising exogenously added RSPO-1 (˜100 ng/mL) or lacking exogenously added RSPO-1 (e.g. MammoCult™ Mouse Organoid Growth Medium, […] Technologies) (FIG. 2).\nOrganoid media were formulated to lack either exogenously added RSPO-1 or RSPO-3, and they were tested on single cell suspensions of bulk mammary epithelial cells, obtained in accordance with Example 1 and seeded and cultured as described in Example 2. […] Flow cytometry analysis of the cellular composition of organoids formed in either RSPO-comprising media or media lacking RSPO confirmed a reduction in the number of basal cells among organoids formed in the absence of WNT agonism (FIG. 3B).\nIn a follow-up experiment, organoids were formed from single cell suspensions obtained in accordance with Example 1, and seeded and cultured as described in Example 2. […] At the end of the second passage the formed organoids were processed and stained for K8, K14, and DAPI, as described in Example 3.\nThe foregoing experiments were performed in a medium that included an inhibitor of BMP signaling, thus the effect of BMP signaling inhibition on the formation of mouse mammary organoids was explored."}, "[4]": {"tested_on": "mouse mammary epithelial cells", "assay": "Mouse mammary organoid cell lineage balance by flow cytometry (EpCAM, CD49f)", "format": "cell-based", "conditions": "non-sorted mouse cells; ~100 ng/mL NOGGIN and ~100 ng/mL RSPO-1 together vs free of both; 8 independent experiments; 14 days (P0)", "protocol": "Panels A) and B) show representative images of organoids after cells were cultured for 14 days (P0) in an R-spondin-containing (panel A) or an R-spondin-free (panel B) medium. Cells of the organoids shown in panels A) and B) were respectively analyzed by flow cytometry for expression of EpCAM and CD49f (panels C) and D)). A summary of flow cytometry data is shown in panel E. Results were confirmed in n=8 mice. Scale bars are 500 μm.\nas §1, with “The resulting cells were passed through a 37 μm strainer to obtain the single cell suspension.” left out"}, "[5]": {"tested_on": "human mammary epithelial cells", "assay": "Human mammary organoid formation, brightfield microscopy", "format": "cell-based", "protocol": "Fragments of human mammary epithelial cells were isolated from tissue samples obtained from academic collaborators, as follows. Resected tissue samples were minced in a petri dish using a scalpel to cut in a cross-hatched pattern. The minced tissue samples were placed in a dissociation flask in standard culture medium supplemented with BSA, insulin, collagenase and hyaluronidase. The flask was gently shaken overnight on an orbital shaker placed in a 37° C. tissue incubator. The following morning the floating layer of fat was removed by pipette, and the remaining liquid was transferred to a tube and briefly centrifuged at low rpm (˜80 g for 30 seconds). The pellet (A pellet) was set aside and the supernatant was further centrifuged for an incrementally longer period of time and at an incrementally higher rpm (˜200 g for 4 minutes). The pellet (B pellet) was set aside and the supernatant was further centrifuged for a still incrementally longer period of time and at an incrementally higher rpm (˜450 g for 5 minutes).\nCryopreserved pellet A and pellet B were dissociated into a single cell suspension by treatment with 0.25% Trypsin-EDTA for 5 minutes at 37° C. (with intermittent trituration) and then centrifuged at (300 g for 5 minutes). The supernatant was discarded and the pellet was resuspended in a 100 μg/ml DNase solution for 1 minute at room temperature. […]"}}}
{"molecule": "B1", "values": [{"measurement": "total cell count among formed organoids, ERBB modulators", "setting": "[1]; vs control with no modulation of ERBB signaling", "result": "highest mitogenic activity"}, {"measurement": "cell lineage balance, ERBB receptor family ligands", "setting": "[2]; just prior to first passage, ~10-50 ng/mL AREG, ~10-50 ng/mL EGF, ~50-100 ng/mL NRG1", "result": "a minor or no effect on cell lineage balance"}, {"measurement": "cell lineage balance across multiple experiments, ERBB ligands", "setting": "[2]; normalized to control lacking ERBB modulators, mean of 2 experiments", "result": "minimal impact on luminal cell percentages but profound impact on increasing basal cell percentages"}]}
{"molecule": "B2", "values": [{"measurement": "organization of organoids formed in the absence of RSPO-1 over three successive passages", "setting": "[3]; non-sorted mouse cells, P0-P2, absence vs presence of RSPO-1, medium included BMP signaling inhibitor", "result": "cystic organization devoid of branching"}, {"measurement": "type of organoids formed from bulk (non-sorted) mammary epithelial cells", "setting": "[3]; non-sorted mouse cells", "result": "yielded a significant number of mixed organoids"}, {"measurement": "organoid formation from sorted ER+ lineage cells", "setting": "[3]; sorted mouse ER+ luminal cells, medium with ~100 ng/mL RSPO-1 vs lacking RSPO-1, no BMP signaling inhibitor", "result": "generally the same efficiency in either of the tested medium formulations"}, {"measurement": "organoid organization from sorted basal lineage cells", "setting": "[3]; sorted mouse basal lineage cells, RSPO-1 (~100 ng/mL) containing medium vs RSPO-1 deficient", "result": "a predominately mixed organization"}, {"measurement": "organoid organization from sorted milk lineage cells", "setting": "[3]; sorted mouse milk lineage cells, RSPO-1 (~100 ng/mL) containing medium vs RSPO-1 deficient (cystic)", "result": "a more mixed organization of basal, luminal and other cells"}, {"measurement": "lineage balance in medium free of NOGGIN and RSPO-1 vs medium comprising both", "setting": "[4]", "result": "a significant reduction of basal cells with a concomitant increase in luminal cells"}, {"measurement": "luminal-biased organoids with vs without exogenously-added RSPO-1", "setting": "[5]; luminal-promoting organoid medium, ~20-200 ng/mL RSPO-1", "result": "did not reveal a significant increase or reduction of luminal-biased organoids"}]}
{"molecule": "B3", "values": [{"measurement": "total cell count among formed organoids, BMP signaling modulators", "setting": "[1]; vs condition where BMP signaling not modulated or inhibited", "result": "a marked net loss of total cells"}, {"measurement": "cell lineage balance, BMP signaling modulators", "setting": "[2]; just prior to first passage", "result": "significant increase in basal cells and reduction in luminal cells"}]}
{"molecule": "B4", "values": [{"measurement": "cell lineage balance, TGFβ receptor ligands", "setting": "[2]; ~50 ng/mL, just prior to first passage", "result": "results consistent with TGF β1"}]}
{"molecule": "B5", "values": [{"measurement": "lineage balance in medium free of NOGGIN and RSPO-1 vs medium comprising both", "setting": "[4]", "result": "a significant reduction of basal cells with a concomitant increase in luminal cells"}, {"measurement": "formation of luminal organoids, single vs dual BMP signaling inhibitor", "setting": "[5]; media comprising NOGGIN or LDN193189 alone vs both, successive passages", "result": "appeared sufficient to bias formation of luminal organoids"}, {"measurement": "cell lineage balance, BMP signaling modulators", "setting": "[2]; just prior to first passage", "result": "decreased the number of basal cells while increasing the number of luminal cells"}]}
{"molecule": "B6", "values": [{"measurement": "type of organoids formed from bulk (non-sorted) mammary epithelial cells", "setting": "[3]; non-sorted mouse cells", "result": "yielded a significant number of mixed organoids"}]}
